Values of other authors in PMC3968163.

Biological target: p53 TAD (Homo sapiens) (UniProt P04637)
Experiment: ITC

Sequence of Tfb1 PH (P32776 1-115): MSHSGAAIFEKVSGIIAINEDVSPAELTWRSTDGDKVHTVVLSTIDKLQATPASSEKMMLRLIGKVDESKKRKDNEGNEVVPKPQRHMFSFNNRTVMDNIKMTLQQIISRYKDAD
Sequence of p53 TAD (Homo sapiens) (P04637 20-73): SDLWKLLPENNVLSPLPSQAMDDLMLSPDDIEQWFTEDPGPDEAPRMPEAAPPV

For Tfb1 PH (from UniProt P32776), the Kd is given as 400 nM.
